Assay results as given in PMC9546227, “Cysteines have a role in conformation of the UVR8 photoreceptor” (The Plant Journal, 2022).
One block for each binder: values may come before it.

Tests used:
[1] = target: T1, UV … LOCUS 8 (UVR8), wild-type, purified (Arabidopsis thaliana), Q9FN03; assay: SDS-PAGE with non-boiled samples; purified protein not exposed to UV-B; 10% gel, Coomassie stain; dimer to monomers; conditions: remark: other sources report otherwise
T1 chain: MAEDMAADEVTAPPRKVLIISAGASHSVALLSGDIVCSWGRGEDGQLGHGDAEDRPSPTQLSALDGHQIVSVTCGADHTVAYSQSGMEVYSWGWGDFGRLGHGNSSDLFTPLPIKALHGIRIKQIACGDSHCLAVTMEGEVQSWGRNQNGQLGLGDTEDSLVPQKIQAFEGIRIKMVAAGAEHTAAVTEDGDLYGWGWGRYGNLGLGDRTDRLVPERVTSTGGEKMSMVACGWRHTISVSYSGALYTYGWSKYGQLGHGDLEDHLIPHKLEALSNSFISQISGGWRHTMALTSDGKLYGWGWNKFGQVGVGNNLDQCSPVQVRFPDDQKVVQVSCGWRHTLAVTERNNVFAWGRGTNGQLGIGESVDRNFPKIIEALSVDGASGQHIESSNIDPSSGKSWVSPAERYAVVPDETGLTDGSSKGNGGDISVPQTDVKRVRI

[2] = target: the molecule itself; assay: as above
[3] = target: the molecule itself; assay: SDS-PAGE with non-boiled samples; protein extracts of 14-day-old plants not exposed to UV-B (also after return to white light following UV-B, re-dimerization); immunoblot with anti-UVR8-C; dimer to monomers

stoichiometry N [1]: 2
B1: UV … LOCUS 8 (UVR8), wild-type, purified, Q9FN03 1-440 (natural protein)
chain: MAEDMAADEVTAPPRKVLIISAGASHSVALLSGDIVCSWGRGEDGQLGHGDAEDRPSPTQLSALDGHQIVSVTCGADHTVAYSQSGMEVYSWGWGDFGRLGHGNSSDLFTPLPIKALHGIRIKQIACGDSHCLAVTMEGEVQSWGRNQNGQLGLGDTEDSLVPQKIQAFEGIRIKMVAAGAEHTAAVTEDGDLYGWGWGRYGNLGLGDRTDRLVPERVTSTGGEKMSMVACGWRHTISVSYSGALYTYGWSKYGQLGHGDLEDHLIPHKLEALSNSFISQISGGWRHTMALTSDGKLYGWGWNKFGQVGVGNNLDQCSPVQVRFPDDQKVVQVSCGWRHTLAVTERNNVFAWGRGTNGQLGIGESVDRNFPKIIEALSVDGASGQHIESSNIDPSSGKSWVSPAERYAVVPDETGLTDGSSKGNGGDISVPQTDVKRVRI

B2: UVR8^C231S,C335S, purified (natural protein, Arabidopsis thaliana, UniProt Q9FN03 1-440, looked up)
chain: MAEDMAADEVTAPPRKVLIISAGASHSVALLSGDIVCSWGRGEDGQLGHGDAEDRPSPTQLSALDGHQIVSVTCGADHTVAYSQSGMEVYSWGWGDFGRLGHGNSSDLFTPLPIKALHGIRIKQIACGDSHCLAVTMEGEVQSWGRNQNGQLGLGDTEDSLVPQKIQAFEGIRIKMVAAGAEHTAAVTEDGDLYGWGWGRYGNLGLGDRTDRLVPERVTSTGGEKMSMVASGWRHTISVSYSGALYTYGWSKYGQLGHGDLEDHLIPHKLEALSNSFISQISGGWRHTMALTSDGKLYGWGWNKFGQVGVGNNLDQCSPVQVRFPDDQKVVQVSSGWRHTLAVTERNNVFAWGRGTNGQLGIGESVDRNFPKIIEALSVDGASGQHIESSNIDPSSGKSWVSPAERYAVVPDETGLTDGSSKGNGGDISVPQTDVKRVRI
notes: UVR8, Arabidopsis thaliana, with C231S and C335S; also called UVR8^SS; source: E. coli, purified (as detailed by Christie et al., 2012)
stoichiometry N [2]: 2

B3: GFP-UVR8^C231S,C335S (uvr8-1/35Spro:GFP-UVR8^C231S,C335S plants) (natural protein, Arabidopsis thaliana, UniProt Q9FN03 1-440, looked up)
chain: MAEDMAADEVTAPPRKVLIISAGASHSVALLSGDIVCSWGRGEDGQLGHGDAEDRPSPTQLSALDGHQIVSVTCGADHTVAYSQSGMEVYSWGWGDFGRLGHGNSSDLFTPLPIKALHGIRIKQIACGDSHCLAVTMEGEVQSWGRNQNGQLGLGDTEDSLVPQKIQAFEGIRIKMVAAGAEHTAAVTEDGDLYGWGWGRYGNLGLGDRTDRLVPERVTSTGGEKMSMVASGWRHTISVSYSGALYTYGWSKYGQLGHGDLEDHLIPHKLEALSNSFISQISGGWRHTMALTSDGKLYGWGWNKFGQVGVGNNLDQCSPVQVRFPDDQKVVQVSSGWRHTLAVTERNNVFAWGRGTNGQLGIGESVDRNFPKIIEALSVDGASGQHIESSNIDPSSGKSWVSPAERYAVVPDETGLTDGSSKGNGGDISVPQTDVKRVRI
notes: UVR8, Arabidopsis thaliana, with C231S and C335S; Cloned into the pEZR(K)L-C vector by the methods of Cloix et al. (2012); also called GFP-UVR8^SS; source: transgenic Arabidopsis uvr8-1/CaMV35Spro:GFP-UVR8^C231S,C335S, in protein extract
stoichiometry N [3]: 2
